Holding throughout (experiment): fluorescence polarisation
For assay [1], the target named is eIF5-TAMRA (S. cerevisiae) (UniProt P38431).
For assay [2], the target named is eIF4B-Fl (S. cerevisiae) (UniProt P34167).
For assay [3], the target named is eIF1-TAMRA (S. cerevisiae) (UniProt P32911).
Assay [4] concerns the target T1, eIF4G1 (yeast eIF4G, wild type) (S. cerevisiae, UniProt P39935 1-952).
T1 sequence (looked up): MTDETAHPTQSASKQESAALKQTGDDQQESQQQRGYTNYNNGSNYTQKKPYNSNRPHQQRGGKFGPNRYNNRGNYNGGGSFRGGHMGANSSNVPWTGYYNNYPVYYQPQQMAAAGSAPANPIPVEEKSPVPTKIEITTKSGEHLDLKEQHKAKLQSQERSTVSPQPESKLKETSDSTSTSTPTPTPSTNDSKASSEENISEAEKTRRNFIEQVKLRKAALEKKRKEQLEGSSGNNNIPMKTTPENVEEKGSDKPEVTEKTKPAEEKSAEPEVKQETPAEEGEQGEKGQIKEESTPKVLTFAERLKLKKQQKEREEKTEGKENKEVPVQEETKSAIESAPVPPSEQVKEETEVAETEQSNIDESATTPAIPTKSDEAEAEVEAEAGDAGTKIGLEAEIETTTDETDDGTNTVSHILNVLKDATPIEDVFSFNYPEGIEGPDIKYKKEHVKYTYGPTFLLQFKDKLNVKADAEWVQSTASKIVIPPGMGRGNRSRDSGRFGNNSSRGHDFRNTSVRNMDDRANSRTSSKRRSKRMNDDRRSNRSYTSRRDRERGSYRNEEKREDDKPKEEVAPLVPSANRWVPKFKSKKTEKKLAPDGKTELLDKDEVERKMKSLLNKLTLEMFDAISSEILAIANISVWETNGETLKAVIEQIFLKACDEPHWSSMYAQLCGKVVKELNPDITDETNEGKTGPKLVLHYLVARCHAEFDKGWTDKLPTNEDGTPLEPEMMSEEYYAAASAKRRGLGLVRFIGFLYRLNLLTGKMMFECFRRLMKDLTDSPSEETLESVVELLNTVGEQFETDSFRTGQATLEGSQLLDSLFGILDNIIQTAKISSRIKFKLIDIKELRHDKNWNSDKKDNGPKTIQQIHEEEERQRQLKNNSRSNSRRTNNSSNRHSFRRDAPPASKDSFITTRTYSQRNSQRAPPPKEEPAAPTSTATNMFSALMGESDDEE

The target in assay [5] is T2, eIF4E•eIF4G complex (S. cerevisiae, UniProt P07260 1-213; P39935 1-952).
T2 sequence (looked up) 1: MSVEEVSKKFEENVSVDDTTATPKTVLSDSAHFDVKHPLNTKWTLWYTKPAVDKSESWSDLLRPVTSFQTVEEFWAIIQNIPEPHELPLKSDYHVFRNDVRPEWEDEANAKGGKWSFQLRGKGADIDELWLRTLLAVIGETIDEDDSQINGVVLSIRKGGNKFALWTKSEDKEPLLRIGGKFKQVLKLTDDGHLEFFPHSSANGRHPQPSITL
T2 sequence (looked up) 2: T1 sequence (looked up)

This note sets out measurements from PMC2945613 (Molecular cell, 2010).

Changes are numbered by the printed parent chain. Names may count otherwise.

One may read the Kd as the free concentration of one partner at which half of the binding sites on the other are occupied at equilibrium, for simple one-to-one binding. A low value points to higher affinity.

eIF5-TAMRA (S. cerevisiae), sequence (P38431 whole entry): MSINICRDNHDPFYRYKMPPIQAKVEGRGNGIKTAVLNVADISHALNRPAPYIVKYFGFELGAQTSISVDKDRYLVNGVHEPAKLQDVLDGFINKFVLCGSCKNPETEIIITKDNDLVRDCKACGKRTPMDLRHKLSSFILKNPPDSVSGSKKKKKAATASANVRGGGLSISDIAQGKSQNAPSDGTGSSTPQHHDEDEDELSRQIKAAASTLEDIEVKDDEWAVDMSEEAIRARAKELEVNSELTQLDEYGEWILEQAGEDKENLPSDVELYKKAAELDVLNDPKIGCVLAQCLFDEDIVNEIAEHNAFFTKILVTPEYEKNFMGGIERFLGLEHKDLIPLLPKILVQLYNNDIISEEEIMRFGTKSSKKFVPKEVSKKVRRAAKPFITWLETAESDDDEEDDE
eIF1-TAMRA (S. cerevisiae), sequence (P32911 whole entry): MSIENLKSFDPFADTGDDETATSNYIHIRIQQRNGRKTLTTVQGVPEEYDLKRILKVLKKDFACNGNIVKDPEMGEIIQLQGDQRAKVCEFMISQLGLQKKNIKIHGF

Turning to eIF3 (yeast multisubunit complex), the results for the dissociation constant (Kd) in assay [1], in assay [2] and in assay [3] were 15 nM, 380 nM and 115 nM, respectively.

B1: eIF4E-Fl (yeast eIF4E S200C labelled with fluorescein maleimide) (natural protein, S. cerevisiae, UniProt P07260 1-213, looked up)
chain: T2 sequence (looked up) 1 with S200C
modifications: fluorescein maleimide on the introduced cysteine (S200C)
With B1, in assay [4], the Kd is under 15 nM.

B2: eIF4A-TAMRA (enzyme, S. cerevisiae, UniProt P10081 1-395, looked up)
chain: MSEGITDIEESQIQTNYDKVVYKFDDMELDENLLRGVFGYGFEEPSAIQQRAIMPIIEGHDVLAQAQSGTGKTGTFSIAALQRIDTSVKAPQALMLAPTRELALQIQKVVMALAFHMDIKVHACIGGTSFVEDAEGLRDAQIVVGTPGRVFDNIQRRRFRTDKIKMFILDEADEMLSSGFKEQIYQIFTLLPPTTQVVLLSATMPNDVLEVTTKFMRNPVRILVKKDELTLEGIKQFYVNVEEEEYKYECLTDLYDSISVTQAVIFCNTRRKVEELTTKLRNDKFTVSAIYSDLPQQERDTIMKEFRSGSSRILISTDLLARGIDVQQVSLVINYDLPANKENYIHRIGRGGRFGRKGVAINFVTNEDVGAMRELEKFYSTQIEELPSDIATLLN
modifications: TAMRA label, attached by expressed protein ligation
As for B2, the binding result in assay [5] is “binds”. Besides, the Kd in assay [4] worked out at 200 nM.
